Data as given in the nanobody polyreactivity screen of Harvey et al. (2022).

Assay: yeast display, Sf9 membrane polyspecificity reagent, FACS + sequencing; frameworks hold sequencing errors
How it was run: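 Galactose induction of a Saccharomyces cerevisiae BJ5465 synthetic nanobody display library ran 36–48 hours. The cells were then stained for 1 hour at 4 °C with 10% biotinylated, detergent-solubilized Sf9 membrane reagent, pulled down on streptavidin microbeads and FACS-sorted into low and high (top ~1%) gates on expression and reagent-binding fluorescence. Labels for polyreactivity follow the gate of origin.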

Sequence	polyreactivity (PSR sort gate)
QVQLVESGGGLVQAGGSLRLSCAASGRTFSRYAMGWYRQAPGKEREFVAAISASGGSTYYADSVKGRFTISRDNAKNTVYLQMNSLKPEDTAVYYCAASGYYRYYQYRYDYWGQGTQVTVSS	high polyreactivity
QVQLVESGGGLVQAGGSLRLSCAASGRTFSRYAMGWYRQAPGKERELVAAISNSGASTYYADSVKGRFTISRDNAKNTVYLQMNSLKPEDTAVYYCAAERYRLSYQYQEYYYWGQGTQVTVSS	high polyreactivity
QVQLVESGGGLVQAGGSLRLSCAASGRTFSSNAMGWYRQDPGKERELVASISFRGGRTYYADSVKGRFTISRDNAKNTVYLQMNSLKPEVTAVYYCVSGTKRTGYGYWGQGTQVTVSS	high polyreactivity
QVQLVESGGGLVQAGGSLRLSCAASGRTFSSYAMGWYIQAPGKERELVAAITRGGGSTYYADSVKGRFTISRDNAKNTVYLQMNSLKPEDTAVYYCAADYGRDYRAFNYWGQGTQVTVSS	high polyreactivity
QVQLVESGGGLVQAGGSLRLSCAASGRTFSSYAMGWYRQAPGKERELVADINRSGGSTYYADSVKGRFTISRDNAKNTVYLQMNSLKPEDTAVYYCNVRIWPWYGYDYWGQGTQVTVSS	low polyreactivity
QVQLVESGGGLVQAGGSLRLSCAASGRTFSSYAMGWYRQAPGKERELVASISKSGGSTSYADSVKGRFTISRDNAKNTVYLQMNSLKPEDTAVYYCNARLDYSTYESSPVTRKRYYWGQGTQVTVSS	low polyreactivity
QVQLVESGGGLVQAGGSLRLSCAASGRTFSTNVMGWYRQAPGKERELVAAITTSSSRTYYADSVKGRFTISRDNAKNTVYLQMNSLKPEDTAVYYCAARIHGSWSFDYWGQCTQVTVSS	low polyreactivity
QVQLVESGGGLVQAGGSLRLSCAASGRTFSTYAMGGYRQAPGKERELVAVIRRDGSTSYADSVKGRFTISRDNAKNTVYLQMNSLKPEDTAVYYCAVTRRGEYYWGQGTQVTVSS	high polyreactivity
QVQLVESGGGLVQAGGSLRLSCAASGRTFSTYAMGWYRQAPGKERELVAAISWRGARTYYADSVKGRFTISRDNAKNTVYLQMNSLKPEDTAVYYCAVRSLVAIRGRAYYYWGQGTQVTVSS	high polyreactivity
QVQLVESGGGLVQAGGSLRLSCAASGRTFSTYTMGWYRQAPGKERELVAAITSSGGGTYYADSVKGRFTISRDNAKNTVYLQMNSLKPEDTAVSYCGTVRTYRPPVRRGYWGQGTQVTVSS	high polyreactivity
QVQLVESGGGLVQAGGSLRLSCAASGRTFSVNAMGWYRPAPGKERELVAAISWSTGSTYYADSVKGRFTISRDNAKNTVYLQMNSLKPEDTAVYYCAKLYEYRRSRYRTYGYWGQGTQVTVSS	high polyreactivity
QVQLVESGGGLVQAGGSLRLSCAASGRTFSVNAMGWYRQAPGKERELVAAISWDGGSTYYADSVKGRFTISRDNAKNSVYLQMNSLKPEDTAVYYCNKDLYYAYDYWGQGTQVTVSS	low polyreactivity
QVQLVESGGGLVQAGGSLRLSCAASGRTFSVNDMGWYRQAPGKERELVAAISFSGGSTYYADSVKGRFTISRDNAKNSVYLQMNSLKPEDTEVYYCAAEAYASCFYVITGFGIYDYWGQGTQVTVSS	high polyreactivity
QVQLVESGGGLVQAGGSLRLSCAASGRTFSVNDMGWYRQAPGKERELVAAISFSGGSTYYADSVKGRFTISRDNAKNTVYLQMNSLKPEDTAVYYCASEAYPSWFYVITGFGIYDYWGQGTQVTVSS	high polyreactivity
QVQLVESGGGLVQAGGSLRLSCAASGRTFSVYAMGSSRHAPGKERELVAAITESGGSTYYADSVKGRFTISRDNAKITVYLQMNSLKPEDTAVYYCNAGPYYWYVYWGQGTQVTVSS	low polyreactivity
QVQLVESGGGLVQAGGSLRLSCAASGRTFSVYAMGWYRQAPGKERELVARIRSGGSTYYADSVKGRFTISRDNAKNTVYLQMNRLKPEDTAVYYCATQHYGPSSNARGVYRYYYWGHGTQVTVSS	high polyreactivity

Sequence	polyreactivity (PSR sort gate)
QVQLVESGGGLVQAGGSLRLSCAASGRTFSVYTMGWYRQAPGKERELVASINWSGGRTYYADSVKGRFTISRDNAKNTVYLQMNSLKPEDTAVYYCAATGWRTLYDYWGQGTQVTVSS	high polyreactivity
QVQLVESGGGLVQAGGSLRLSCAASGRTFSWNAMGWYRQAPGKERELVAAINRSGGITFYADSVKGRFTISRDNAKNTVYLHMNSLKPEDTAVYYSAADRSFGHHYWYSGKRYDYWGQGTQVTVSS	low polyreactivity
QVQLVESGGGLVQAGGSLRLSCAASGRTFSWYVMGWYRQAPGKERELVAAISWNGGRTYYADSVKGRFTISRDNAKNTVYLQMNSLKPEDTAVYYCNRDYYWRDGAKYIDDYWGQGTQVTVSS	high polyreactivity
QVQLVESGGGLVQAGGSLRLSCAASGRTFSYAMGWYRQAPGKERELVAAITSGGSTYYADSVKGRFTISRDNAKNTVYLQMNSLKPEDTAVYYCAKLLGNYARYDYWGHGTQVTVSS	high polyreactivity
QVQLVESGGGLVQAGGSLRLSCAASGRTFSYNAMGWYRQAPGKERELVAAISWSDGSTYYADSVKGRFTISRDNAKNTVYLQMNSLKPEDTAVYYCAVESFYRHASLYDNWGQGTQVTVSS	high polyreactivity
QVQLVESGGGLVQAGGSLRLSCAASGRTFSYNARGWYRPAPGKEMELVASISSSGTSTSYADSVKGRFTISRDYAKNTVYLQMNSLKPEDTAVYYCATVRYPYWYSGPQNSRGYWGQGSQVTVSS	high polyreactivity
QVQLVESGGGLVQAGGSLRLSCAASGRTFSYYALGWYRQAPGKERELVATISYSTGNTNYADSVKGRFTISRDNAKNTVYLQMNSLKPEDTAVYYCAADFSPFVGETYWKYDYWGQGTQVTVSS	low polyreactivity
QVQLVESGGGLVQAGGSLRLSCAASGRTFSYYAMGWSRQAPGKERELVAAMSWNGGSTYYADSVKGRFTISRDNAKNTVYFQMNSLKPEDTAVYYGAAAFYYYGDYDYWGQGTQVTVSS	low polyreactivity
QVQLVESGGGLVQAGGSLRLSCAASGRTFSYYAMGWYRPAPGKERELVARITYRGGRTYYADSVKGRFTISRDNAKNTVYLQMNSLKPEDTAVYYCATTSWRYGYDYWGQGTQVTVSS	high polyreactivity
QVQLVESGGGLVQAGGSLRLSCAASGRTFSYYAMGWYRQAAGKERELVAAISRAGRTNYADSVKGRFTISRDNAKNTVYLQMNSLKPEDTAVYYCAATGWLRIDRPYTYTYCYWGQGTQVTVSS	high polyreactivity
QVQLVESGGGLVQAGGSLRLSCAASGRTFSYYAMGWYRQAPGKERELVAAIRRSSGTTYYADSVKGRFTISSDNAKNTVYLQMNSLKPEDTAVYYCNARSRRASIKRDYWGQGTQVTVSS	high polyreactivity
QVQLVESGGGLVQAGGSLRLSCAASGRTFSYYAMGWYRQAPGKERELVAAISSGGSTNYADSVKGRFTISRDNAKNTVYLQMNSLKPEDPAFYYCANSSIWGSGRVRWVTYYFWGQGTQVTVSS	low polyreactivity
QVQLVESGGGLVQAGGSLRLSCAASGRTFSYYAMGWYRQAPGKERELVARITYRGGRTYYADSVKGRFTISRDHAKNTVYLQMNSLKPEDTAVYYCNADAIYKRGGRDYWGQGTQVTVSS	high polyreactivity
QVQLVESGGGLVQAGGSLRLSCAASGRTFSYYAMGWYRQAPGKERELVASISGGGRTNYADSVKGRFTISRDNAKITVYLQMNSVKPEDTAVYYCAASYQITRQYKRGYWGQGTQVTVSS	high polyreactivity
QVQLVESGGGLVQAGGSLRLSCAASGRTFSYYARGWYRQAPGKERELVAAISSGGSTNYADSVKGRFTISRDNAKNTVYFQMNSLKPEDTAVYYCAALWSGYKFNYWGQGTQVTVSS	low polyreactivity
